We go through five molecules from patent US20220144956A1 (published 2022).

Test [1] deals with αCD5 (Clone 3) x αTGFßRII. Briefly: Octet. On the technique in general: BLI is a label-free optical method that tracks binding on a fibre tip over time.
Test [2] addresses αCD5 (Clone 5) x αTGFßRII. Briefly: Octet.
Test [3] has as its target αCD5 (Clone 4) x αTGFßRII. Briefly: Octet.
Test [4] concerns the target αCD5 (Clone 7) x αTGFßRII. Briefly: Octet.
Test [5] has as its target αCD5 (Clone 10) x αTGFßRII. Briefly: Octet.
Test [6] has as its target αCD5 (Clone 11) x αTGFßRII. Briefly: Octet.
Test [7] addresses αCD5 (Clone 1) x αTGFßRII. Briefly: Octet.
Test [8] deals with αCD5 (Clone 6) x αTGFßRII. Briefly: Octet.
Test [9] concerns the target αCD5 (Clone 9) x αTGFßRII. Briefly: Octet.
Test [10] has as its target αCD5 (Clone 8) x αTGFßRII. Briefly: Octet.
Test [11] deals with Unstimulated Cyno CD8 T cells (cynomolgus monkey). Briefly: FACS cell binding; CD8 T cells; avid.
Test [12] has as its target Unstimulated Cyno CD3+ cells (cynomolgus monkey). Briefly: FACS cell binding; CD3+ cells; avid.
Test [13] deals with Unstimulated Cyno CD4 T cells (cynomolgus monkey). Briefly: FACS cell binding; CD4 T cells; avid.
The target of test [14] is human TGFßRII (antigen of the Octet experiments) (human, UniProt P37173 23-166).
Test [15] concerns the target T1, His-tagged human CD5 antigen (human, UniProt P06127 25-372).
T1 chain: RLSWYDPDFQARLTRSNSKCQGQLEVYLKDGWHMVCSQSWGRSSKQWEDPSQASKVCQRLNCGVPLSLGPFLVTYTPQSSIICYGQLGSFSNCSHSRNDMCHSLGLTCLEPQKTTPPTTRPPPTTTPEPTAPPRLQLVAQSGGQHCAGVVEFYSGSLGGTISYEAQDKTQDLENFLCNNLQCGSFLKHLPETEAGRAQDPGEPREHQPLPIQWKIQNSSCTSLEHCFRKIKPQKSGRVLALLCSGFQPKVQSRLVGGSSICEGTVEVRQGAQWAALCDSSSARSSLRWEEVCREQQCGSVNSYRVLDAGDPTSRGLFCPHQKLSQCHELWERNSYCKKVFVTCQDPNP
Briefly: Octet.

human TGFßRII (antigen of the Octet experiments), sequence (P37173 23-166): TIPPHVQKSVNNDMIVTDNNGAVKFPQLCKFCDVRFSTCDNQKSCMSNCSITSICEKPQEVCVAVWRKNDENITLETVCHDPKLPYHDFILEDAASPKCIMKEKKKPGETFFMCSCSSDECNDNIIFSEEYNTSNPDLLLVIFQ

B1: Human (receptor)
chain: RLSWYDPDFQARLTRSNSKCQGQLEVYLKDGWHMVCSQSWGRSSKQWEDPSQASKVCQRLNCGVPLSLGPFLVTYTPQSSIICYGQLGSFSNCSHSRNDMCHSLGLTCLEPQKTTPPTTRPPPTTTPEPTAPPRLQLVAQSGGQHCAGVVEFYSGSLGGTISYEAQDKTQDLENFLCNNLQCGSFLKHLPETEAGRAQDPGEPREHQPLPIQWKIQNSSCTSLEHCFRKIKPQKSGRVLALLCSGFQPKVQSRLVGGSSICEGTVEVRQGAQWAALCDSSSARSSLRWEEVCREQQCGSVNSYRVLDAGDPTSRGLFCPHQKLSQCHELWERNSYCKKVFVTCQDPNP
Regarding B1, the Kd was determined as 1.53 nM in [1]; 12.9 nM in test [2]; 7.03 nM in test [3]; 2.05 nM in test [4]; 1.24 nM in [5]; 18.6 nM in test [6]. Further, the Kd in [7] was 7.91 nM; in test [8], 11.1 nM; in test [9] it was 2.99 nM; in [10], 8.72 nM.

B2: XENP35401 anti-CD5 clone 5D7 Bivalent (antibody, V domains shown)
VH: EVQLVESGGGVVQPGRSLRLSCTFSGFSLSTSGMGVGWIRQAPGKGLEWVAHIWWDDDVYYNPSLKSRLTITKDASTDTVYMELSSLRSEDTAVYYCVRRRATGTGFDYWGQGTLVTVSS
VL: NIVMTQSPSSLSASVGDRVTITCQASQDVGTAVAWYQQKPDQSPKLLIYWTSTRHTGVPDRFTGSGSGTDFTLTISSLQPEDIATYFCHQYNSYNTFGSGTKLEIKR
For the molecule B2, the EC50 in test [11] came out at 0.415 µg/mL; in test [12] it was 0.508 µg/mL; in [13], 0.584 µg/mL.

B3: XENP35399 (bispecific antibody)
heavy: EVQLVESGGGVVQPGRSLRLSCTFSGFSLSTSGMGVGWIRQAPGKGLEWVAHIWWDDDVYYNPSLKSRLTITKDASTDTVYMELSSLRSEDTAVYYCVRRRATGTGFDYWGQGTLVTVSSASTKGPSVFPLAPSSKSTSGGTAALGCLVKDYFPEPVTVSWNSGALTSGVHTFPAVLQSSGLYSLSSVVTVPSSSLGTQTYICNVNHKPSDTKVDKKVEPKSCDKTHTCPPCPAPPVAGPSVFLFPPKPKDTLMISRTPEVTCVVVDVKHEDPEVKFNWYVDGVEVHNAKTKPREEEYNSTYRVVSVLTVLHQDWLNGKEYKCKVSNKALPAPIEKTISKAKGQPREPQVYTLPPSREEMTKNQVSLTCDVSGFYPSDIAVEWESDGQPENNYKTTPPVLDSDGSFFLYSKLTVDKSRWEQGDVFSCSVMHEALHNHYTQKSLSLSPGK
scFv-Fc: QLQVQESGPGLVKPSETLSLTCTVSGGSISNSYFSWGWIRQPPGKGLEWIGSFYYGEKTYYNPSLKSRATISIDTSKSQFSLKLSSVTAADTAVYYCPRGPTVIRGVIDSWGQGTLVTVSSGKPGSGKPGSGKPGSGKPGSEIVLTQSPATLSLSPGERATLSCRASQSVRSYLAWYQQKPGQAPRLLIYDASNRATGIPARFSGSGSGTDFTLTISSLEPEDFAVYYCQQRSNWPPTFGQGTKVEIKEPKSSDKTHTCPPCPAPPVAGPSVFLFPPKPKDTLMISRTPEVTCVVVDVKHEDPEVKFNWYVDGVEVHNAKTKPREEQYNSTYRVVSVLTVLHQDWLNGKEYKCKVSNKALPAPIEKTISKAKGQPREPQVYTLPPSREQMTKNQVKLTCLVKGFYPSDIAVEWESNGQPENNYKTTPPVLDSDGSFFLYSKLTVDKSRWQQGNVFSCSVMHEALHNHYTQKSLSLSPGK
light: NIVMTQSPSSLSASVGDRVTITCQASQDVGTAVAWYQQKPDQSPKLLIYWTSTRHTGVPDRFTGSGSGTDFTLTISSLQPEDIATYFCHQYNSYNTFGSGTKLEIKRTVAAPSVFIFPPSDEQLKSGTASVVCLLNNFYPREAKVQWKVDNALQSGNSQESVTEQDSKDSTYSLSSTLTLSKADYEKHKVYACEVTHQGLSSPVTKSFNRGEC
For the molecule B3, the Kd in test [14] was found to be 0.97 nM; in [15], 1.69 nM.

B4: XENP37385 (bispecific antibody)
heavy: EVQLKESGAELVRPGGSVKISCKGSGYTFTNFAIHWVKQSHIKTLEWIGLISTSSGDVSYNQKFKDKATMTVDKSSSTAYMELARLTSEDSAIYYCARHYGANNYFDYWGQGTLVTVSSASTKGPSVFPLAPSSKSTSGGTAALGCLVKDYFPEPVTVSWNSGALTSGVHTFPAVLQSSGLYSLSSVVTVPSSSLGTQTYICNVNHKPSDTKVDKKVEPKSCDKTHTCPPCPAPPVAGPSVFLFPPKPKDTLMISRTPEVTCVVVDVKHEDPEVKFNWYVDGVEVHNAKTKPREEEYNSTYRVVSVLTVLHQDWLNGKEYKCKVSNKALPAPIEKTISKAKGQPREPQVYTLPPSREEMTKNQVSLTCDVSGFYPSDIAVEWESDGQPENNYKTTPPVLDSDGSFFLYSKLTVDKSRWEQGDVFSCSVMHEALHNHYTQKSLSLSPGK
scFv-Fc: QLQVQESGPGLVKPSETLSLTCTVSGGSISNSYFSWGWIRQPPGKGLEWIGSFYYGEKTYYNPSLKSRATISIDTSKSQFSLKLSSVTAADTAVYYCPRGPTVIRGVIDSWGQGTLVTVSSGKPGSGKPGSGKPGSGKPGSEIVLTQSPATLSLSPGERATLSCRASQSVRSYLAWYQQKPGQAPRLLIYDASNRATGIPARFSGSGSGTDFTLTISSLEPEDFAVYYCQQRSNWPPTFGQGTKVEIKEPKSSDKTHTCPPCPAPPVAGPSVFLFPPKPKDTLMISRTPEVTCVVVDVKHEDPEVKFNWYVDGVEVHNAKTKPREEQYNSTYRVVSVLTVLHQDWLNGKEYKCKVSNKALPAPIEKTISKAKGQPREPQVYTLPPSREQMTKNQVKLTCLVKGFYPSDIAVEWESNGQPENNYKTTPPVLDSDGSFFLYSKLTVDKSRWQQGNVFSCSVMHEALHNHYTQKSLSLSPGK
light: EIVLTQSPTIMSASPGEQVTMTCRTNSSVSSSYLHWYQQKSGASPKLWIYGTSNLASGVPTRFSGSGSGTSYSLTISSVEAGDAATYFCQQYSGYPLTFGGGTKVEIKRTVAAPSVFIFPPSDEQLKSGTASVVCLLNNFYPREAKVQWKVDNALQSGNSQESVTEQDSKDSTYSLSSTLTLSKADYEKHKVYACEVTHQGLSSPVTKSFNRGEC
Turning to B4, the Kd in test [15] is 6.67 nM.

B5: XENP36132 (bispecific antibody)
heavy: EVQLVESGGGVVQPGRSLRLSCTFSGFSLSTSGMGVGWIRQAPGKGLEWVAHIWWDDDVYYNPSLKSRLTITKDASTDTVYMELSSLRSEDTAVYYCVRRRATGTGFDYWGQGTLVTVSSASTKGPSVFPLAPSSKSTSGGTAALGCLVKDYFPEPVTVSWNSGALTSGVHTFPAVLQSSGLYSLSSVVTVPSSSLGTQTYICNVNHKPSDTKVDKKVEPKSCDKTHTCPPCPAPPVAGPSVFLFPPKPKDTLMISRTPEVTCVVVDVKHEDPEVKFNWYVDGVEVHNAKTKPREEEYNSTYRVVSVLTVLHQDWLNGKEYKCKVSNKALPAPIEKTISKAKGQPREPQVYTLPPSREEMTKNQVSLTCDVSGFYPSDIAVEWESDGQPENNYKTTPPVLDSDGSFFLYSKLTVDKSRWEQGDVFSCSVMHEALHNHYTQKSLSLSPGK
scFv-Fc: QLQVQESGPGLVKPSETLSLTCTVSGGSISNSYFYWGWIRQPPGKGLEWIGSFYYGEKTYYNPSLKSRATISIDTSKSQFSLKLSSVTAADTAVYYCPRGPTMIRGVIDSWGQGTLVTVSSGKPGSGKPGSGKPGSGKPGSEIVLTQSPATLSLSPGERATLSCRASQSVRSYLAWYQQKPGQAPRLLIYDASNRATGIPARFSGSGSGTDFTLTISSLEPEDFAVYYCQQRSNWPPTFGQGTKVEIKEPKSSDKTHTCPPCPAPPVAGPSVFLFPPKPKDTLMISRTPEVTCVVVDVKHEDPEVKFNWYVDGVEVHNAKTKPREEQYNSTYRVVSVLTVLHQDWLNGKEYKCKVSNKALPAPIEKTISKAKGQPREPQVYTLPPSREQMTKNQVKLTCLVKGFYPSDIAVEWESNGQPENNYKTTPPVLDSDGSFFLYSKLTVDKSRWQQGNVFSCSVMHEALHNHYTQKSLSLSPGK
light: NIVMTQSPSSLSASVGDRVTITCQASQDVGTAVAWYQQKPDQSPKLLIYWTSTRHTGVPDRFTGSGSGTDFTLTISSLQPEDIATYFCHQYNSYNTFGSGTKLEIKRTVAAPSVFIFPPSDEQLKSGTASVVCLLNNFYPREAKVQWKVDNALQSGNSQESVTEQDSKDSTYSLSSTLTLSKADYEKHKVYACEVTHQGLSSPVTKSFNRGEC
B5: the Kd in test [14] was determined as 6.1 nM.

One may read the Kd as the free concentration of one partner at which half of the binding sites on the other are occupied at equilibrium, for simple one-to-one binding. Higher therefore signals lower affinity. For orientation: EC50 means the midpoint of the concentration-response curve. High values mean weaker potency, low ones greater potency.
